From paper PMC11261448

Target: T1, TOP-2 [R828C]::3xFLAG, Q23670
T1 chain: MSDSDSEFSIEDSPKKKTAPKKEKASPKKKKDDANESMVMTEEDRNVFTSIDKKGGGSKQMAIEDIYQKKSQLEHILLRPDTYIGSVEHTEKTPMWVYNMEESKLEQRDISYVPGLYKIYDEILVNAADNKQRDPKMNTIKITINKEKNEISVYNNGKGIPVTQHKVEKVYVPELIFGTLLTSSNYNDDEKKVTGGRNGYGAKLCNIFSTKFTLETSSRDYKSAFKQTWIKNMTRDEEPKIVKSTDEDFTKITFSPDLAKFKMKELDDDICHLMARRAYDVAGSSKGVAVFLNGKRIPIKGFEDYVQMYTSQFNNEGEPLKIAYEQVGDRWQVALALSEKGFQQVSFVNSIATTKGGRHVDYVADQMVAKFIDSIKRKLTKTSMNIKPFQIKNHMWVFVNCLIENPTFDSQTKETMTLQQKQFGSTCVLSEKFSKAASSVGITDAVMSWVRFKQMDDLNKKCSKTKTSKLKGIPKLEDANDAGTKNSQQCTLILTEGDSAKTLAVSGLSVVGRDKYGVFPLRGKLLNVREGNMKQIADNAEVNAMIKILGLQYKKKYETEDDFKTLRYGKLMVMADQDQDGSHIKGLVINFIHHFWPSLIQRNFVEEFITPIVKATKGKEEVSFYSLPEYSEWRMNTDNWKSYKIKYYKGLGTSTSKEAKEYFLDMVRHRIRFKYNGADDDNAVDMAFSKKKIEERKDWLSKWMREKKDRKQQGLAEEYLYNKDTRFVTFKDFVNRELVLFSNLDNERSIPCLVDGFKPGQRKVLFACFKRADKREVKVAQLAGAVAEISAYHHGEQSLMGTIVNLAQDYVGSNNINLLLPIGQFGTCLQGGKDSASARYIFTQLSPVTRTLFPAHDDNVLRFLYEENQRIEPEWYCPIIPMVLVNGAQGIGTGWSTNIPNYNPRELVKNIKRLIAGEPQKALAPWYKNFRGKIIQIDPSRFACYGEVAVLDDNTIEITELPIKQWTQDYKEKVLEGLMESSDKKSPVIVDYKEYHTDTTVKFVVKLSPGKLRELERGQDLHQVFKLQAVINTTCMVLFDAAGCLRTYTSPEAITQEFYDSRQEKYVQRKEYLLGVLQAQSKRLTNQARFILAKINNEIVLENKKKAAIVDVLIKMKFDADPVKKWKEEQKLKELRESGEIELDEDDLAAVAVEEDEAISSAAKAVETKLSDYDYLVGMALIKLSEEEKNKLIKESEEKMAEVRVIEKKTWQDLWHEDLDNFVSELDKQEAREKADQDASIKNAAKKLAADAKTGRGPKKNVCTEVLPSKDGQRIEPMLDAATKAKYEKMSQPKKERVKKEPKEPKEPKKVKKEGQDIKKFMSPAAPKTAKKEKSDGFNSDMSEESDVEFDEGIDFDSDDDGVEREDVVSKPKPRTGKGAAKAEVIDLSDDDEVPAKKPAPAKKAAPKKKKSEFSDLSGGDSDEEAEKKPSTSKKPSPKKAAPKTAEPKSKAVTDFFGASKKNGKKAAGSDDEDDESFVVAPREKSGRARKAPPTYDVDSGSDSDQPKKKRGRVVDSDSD
Assay: co-immunoprecipitation (anti-FLAG magnetic agarose beads) with anti-RFP immunoblot, band quantification
Details: chain shown with the change;; parent: est. 1.0; read off a plot

B1: m1; m2 TDPT-1:G117R; TOP-2:R828C (protein)
chain: MSNSDDEIQEIEAKRQKMSQEDSEVEIEILDEPEQGKLKNSSMSDEQKLHEFAIITATDEAFAQSILQDVDWDLKKALDVFYGSEAFAEARSAAVMGASSSMASSGAAVMTAEDLKRFEVSVMSWNIDGLDGRSLLTRMKAVAHIVKNVNPDILFLQEVVDRDLAPIDKLQSLYKIYYSNKGCQYYTAILVSKMFDVEKHDVIHFQNSGMYRTLQILEGSIGGLKVFLLNTHLESTREHRPQRCAQFGFCMDKVREIIAQNPGALVFFGGDLNLRDEEVSRVPDGVKDAWEAAGSDNKTKFTWDTFKNDNKQGFHGAKMRFDRLYWSGPLDKVKFTLEGRQRIRSCLCFPSDHWAINATFFA
ratio to parent: 0.33
